Results from patent US20260207767A1 (ANAVEON, published 2026).
Substitutions are numbered along the chain they refer to.

What was measured:
[1] = molecular target: T1, human PD-1 expressed on cells (human, UniProt Q15116 25-288); assay: cell-based or functional assay
[2] = molecular target: T2, IL-2R CD122-CD132 on Jurkat-PD1+CD122+ cells (UniProt P14784 27-551; P31785 23-369); assay: cell-based or functional assay
T2 sequence (looked up) 1: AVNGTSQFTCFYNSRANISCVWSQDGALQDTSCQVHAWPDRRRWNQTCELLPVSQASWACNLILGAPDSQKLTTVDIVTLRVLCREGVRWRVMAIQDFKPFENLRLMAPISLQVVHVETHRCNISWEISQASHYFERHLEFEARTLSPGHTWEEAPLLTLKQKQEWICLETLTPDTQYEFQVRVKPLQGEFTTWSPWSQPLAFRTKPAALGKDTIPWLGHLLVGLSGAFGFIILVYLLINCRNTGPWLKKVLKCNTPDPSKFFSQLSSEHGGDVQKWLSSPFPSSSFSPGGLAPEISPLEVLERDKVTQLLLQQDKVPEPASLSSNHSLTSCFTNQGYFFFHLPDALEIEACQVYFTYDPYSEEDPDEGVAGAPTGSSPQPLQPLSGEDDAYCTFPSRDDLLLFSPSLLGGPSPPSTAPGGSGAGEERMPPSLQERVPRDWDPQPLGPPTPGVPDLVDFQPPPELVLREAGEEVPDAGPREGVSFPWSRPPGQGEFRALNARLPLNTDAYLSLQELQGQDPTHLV
T2 sequence (looked up) 2: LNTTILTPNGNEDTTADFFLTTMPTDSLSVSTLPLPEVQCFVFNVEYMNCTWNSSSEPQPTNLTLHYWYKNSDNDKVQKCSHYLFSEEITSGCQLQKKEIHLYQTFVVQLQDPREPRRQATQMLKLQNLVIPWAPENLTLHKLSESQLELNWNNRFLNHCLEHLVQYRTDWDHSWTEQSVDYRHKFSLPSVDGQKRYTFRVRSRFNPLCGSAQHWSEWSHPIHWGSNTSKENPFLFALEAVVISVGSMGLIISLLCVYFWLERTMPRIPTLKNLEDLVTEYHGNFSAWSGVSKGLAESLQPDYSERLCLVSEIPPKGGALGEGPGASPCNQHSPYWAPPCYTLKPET

[3] = molecular target: T1, human PD-1 expressed on cells; assay: flow cytometry, CHO-S hPD-1
[4] = molecular target: T3, cynoPD-1 His (AcroBiosystems PD1-C5223) (cynomolgus monkey, UniProt B0LAJ3 25-170); assay: SPR; second ka column, taken as cynoPD-1
T3 construct: also called cPD-1; cynomolgus PD-1 His-tagged
T3 sequence (B0LAJ3 entry or part of it limits assumed): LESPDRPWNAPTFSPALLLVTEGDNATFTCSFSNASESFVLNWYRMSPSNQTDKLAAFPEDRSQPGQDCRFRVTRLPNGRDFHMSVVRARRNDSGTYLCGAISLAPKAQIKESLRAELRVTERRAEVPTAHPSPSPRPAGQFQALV
Protocol: (§1) Anti-human Fc IgG (Jackson) was immobilized on amine reactive CM5 chips (GE Healthcare) using 1×HBS-EP+ running buffer (GE Healthcare). The test antibodies were captured at flow rate 10 μl/min with 30 s contact time. […] Regeneration was carried out with 10 mM Glycine-HCl, pH 1.5 at flow rate 10 μL/min. This protocol is to be used, unless stated otherwise, in determination of Kd wherever used to define the KD of antibodies specified herein, with adaptions where necessary with regard to the nature of the interaction partners.
Every position in the antibody VH and VL-CDRs was mutated by PCR using a mutagenic primer containing a degenerate codon NNS at a specific CDR position, introducing a combination of all 20 amino acids. The library of single mutants was screened by scFv capture ELISA using a redundancy factor of 4 (on 96-well plate er position). Clones displaying ≥2× ELISA signal compared to the wild-type scFv were sequenced, and clones with unique sequences were re-grown, re-screened by capture ELISA and ranked by dose-dependent ELISA on human and cyno antigens, and by FACS using human antigen expressing cells. Affinity improving mutations were used to design a combinatorial library using the Kunkel method. The library was screened by scFv capture ELISA using the redundancy factor of 4 (4× number of combinations). Clones displaying ≥2× ELISA signal compared to the wild-type scFv were sequenced, and clones with unique sequences were re-grown, re-screened by capture ELISA and ranked by dose-dependent ELISA on human and cyno antigens, and by FACS using human antigen expressing cells.

[5] = molecular target: T4, cynomolgus PD-1 expressed on cells (cynomolgus monkey, UniProt B0LAJ3 25-288); assay: flow cytometry, CHO-S Cyno-PD-1
T4 construct: also called CHO-S Cyno-PD-1; 293:cyPD1
T4 sequence (B0LAJ3 entry or part of it limits assumed): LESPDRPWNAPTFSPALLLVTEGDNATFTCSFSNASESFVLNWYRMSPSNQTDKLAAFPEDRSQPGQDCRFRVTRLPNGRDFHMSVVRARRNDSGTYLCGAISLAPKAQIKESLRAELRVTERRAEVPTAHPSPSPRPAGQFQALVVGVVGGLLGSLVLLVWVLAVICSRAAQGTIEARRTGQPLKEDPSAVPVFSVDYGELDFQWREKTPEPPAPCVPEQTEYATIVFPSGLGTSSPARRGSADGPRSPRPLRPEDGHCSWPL

[6] = molecular target: T5, recombinant hPD-1 (construct not stated) (human, UniProt Q15116 25-167, limits assumed); assay: ELISA
T5 construct: also called huPD-1; Human PD1
T5 sequence (Q15116 25-167 limits assumed): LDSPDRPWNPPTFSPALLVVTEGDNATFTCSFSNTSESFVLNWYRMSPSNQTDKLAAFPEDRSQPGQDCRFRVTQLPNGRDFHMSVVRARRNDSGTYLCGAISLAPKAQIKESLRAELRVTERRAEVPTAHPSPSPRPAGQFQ

[7] = molecular target: T6, recombinant cynoPD-1 (construct not stated) (cynomolgus monkey, UniProt B0LAJ3 25-170); assay: ELISA
T6 construct: not shown: probably His as elsewhere

[8] = molecular target: T7, hPD-1 Avi-Tag Biotin (AcroBiosystems PD1-H82E4) (human, UniProt Q15116 25-167, biotin on Avi-Tag); assay: SPR, Ab captured, PD-1 analyte
T7 construct: bought; also called human PD-1
T7 sequence (Q15116 25-167 limits assumed): as above
Protocol: as §1, with “partners. […]” for “partners.”

T1 sequence (Q15116 25-288): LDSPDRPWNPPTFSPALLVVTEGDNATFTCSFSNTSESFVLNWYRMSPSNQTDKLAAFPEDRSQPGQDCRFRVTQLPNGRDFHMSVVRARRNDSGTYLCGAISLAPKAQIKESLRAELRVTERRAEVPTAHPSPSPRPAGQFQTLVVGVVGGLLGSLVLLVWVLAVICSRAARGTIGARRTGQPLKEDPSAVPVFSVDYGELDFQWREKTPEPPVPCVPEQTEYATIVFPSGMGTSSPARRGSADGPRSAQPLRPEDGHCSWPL

B1: NZA596 (bispecific antibody, human IgG1, kappa, lambda, L234A L235A)
heavy 1: EVQLLESGGGLVQPGGSLRLSCAASGFTFSINAMTWVRQAPGKGLEWVSTISGSGFSTYYADSLKGRFTISRDNSKNTLYLQMNSLRAEDTAVYYCAKEVYGDYWGQGTLVTVSSASTKGPSVFPLAPSSKSTSGGTAALGCLVKDYFPEPVTVSWNSGALTSGVHTFPAVLQSSGLYSLSSVVTVPSSSLGTQTYICNVNHKPSNTKVDKRVEPKSCDKTHTCPPCPAPEAAGGPSVFLFPPKPKDTLMISRTPEVTCVVVDVSHEDPEVKFNWYVDGVEVHNAKTKPREEQYNSTYRVVSVLTVLHQDWLNGKEYKCKVSNKALAAPIEKTISKAKGQPREPQVCTLPPSREEMTKNQVSLSCAVKGFYPSDIAVEWESNGQPENNYKTTPPVLDSDGSFFLVSKLTVDKSRWQQGNVFSCSVMHEALHNHYTQKSLSLSPGK
light 1: not shown
heavy 2: EVQLVQSGAEVKKPGESLKISCKGSGYAFTNYLIEWVRQMPGKGLEWMGVINPGSGGTNYNEKFKGQVTISADKSISTAYLQWSSLKASDTAMYYCARWRGEGYYAYFDVWGQGTTVTVSSASTKGPSVFPLAPSSKSTSGGTAALGCLVKDYFPEPVTVSWNSGALTSGVHTFPAVLQSSGLYSLSSVVTVPSSSLGTQTYICNVNHKPSNTKVDKRVEPKSCDKTHTCPPCPAPEAAGGPSVFLFPPKPKDTLMISRTPEVTCVVVDVSHEDPEVKFNWYVDGVEVHNAKTKPREEQYNSTYRVVSVLTVLHQDWLNGKEYKCKVSNKALAAPIEKTISKAKGQPREPQVYTLPPCREEMTKNQVSLWCLVKGFYPSDIAVEWESNGQPENNYKTTPPVLDSDGSFFLYSKLTVDKSRWQQGNVFSCSVMHEALHNHYTQKSLSLSPGK
light 2: not shown
- EC50 of NZA596, % pSTAT5+ Jurkat PD-1+CD122+ cells, pre-incubation with Medium [1]: 0.85 nM
- EC50 of NZA596, pre-incubation with 21A08Ap1 [1]: 15.6 nM
- EC50 of NZA596, pre-incubation with Cemiplimab [1]: 1.67 nM
- EC50 of NZA596, pre-incubation with Cetrelimab [1]: 0.76 nM
- EC50 of NZA596, pre-incubation with Dostarlimab (m102) [1]: 0.96 nM
- EC50 of NZA596, pre-incubation with Ezabenlimab [1]: 1.71 nM
- EC50 of NZA596, pre-incubation with Nivolumab [1]: 1.1 nM
- EC50 of NZA596, pre-incubation with Pembrolizumab [1]: 1.02 nM
- EC50 of NZA596, pre-incubation with Tislelizumab [1]: 1.47 nM
- EC50 of NZA596, pre-incubation with Toripalimab [1]: 0.65 nM
- EC50 of NZA596, pre-incubation with Zeluvalimab [1]: 0.88 nM
- fold reduction in NZA596 Potency, pre-incubation with 21A08Ap1 [1]: 18.2 fold
- fold reduction in NZA596 Potency, pre-incubation with Cemiplimab [1]: 1.95 fold
- fold reduction in NZA596 Potency, pre-incubation with Cetrelimab [1]: 0.89 fold
- fold reduction in NZA596 Potency, pre-incubation with Dostarlimab (m102) [1]: 1.12 fold
- fold reduction in NZA596 Potency, pre-incubation with Ezabenlimab [1]: 2 fold
- fold reduction in NZA596 Potency, pre-incubation with Nivolumab [1]: 1.28 fold
- fold reduction in NZA596 Potency, pre-incubation with Pembrolizumab [1]: 1.2 fold
- fold reduction in NZA596 Potency, pre-incubation with Tislelizumab [1]: 1.72 fold
- fold reduction in NZA596 Potency, pre-incubation with Toripalimab [1]: 0.77 fold
- fold reduction in NZA596 Potency, pre-incubation with Zeluvalimab [1]: 1.03 fold
- EC50 (read off the curve), % pSTAT5+ of CFSE+ cells pre-blocked with Nivolumab [panel CFSE+ cells] [2]: ~0.9 nM
- EC50 (read off the curve), % pSTAT5+ of CFSE+ cells pre-blocked with Pembrolizumab [panel CFSE+ cells] [2]: ~0.9 nM
- EC50 (read off the curve), % pSTAT5+ of CFSE+ cells; No blocking [panel CFSE+ cells] [2]: ~0.6 nM
- EC50 (read off the curve), % pSTAT5+ of CTV+ cells; No blocking [panel CTV+ cells] [2]: ~0.5 nM
- EC50 (read off the curve), % pSTAT5+ of CTV+ cells; mixed with CFSE+ cells pre-blocked with Nivolumab [panel CTV+ cells] [2]: ~0.6 nM
- EC50 (read off the curve), % pSTAT5+ of CTV+ cells; mixed with CFSE+ cells pre-blocked with Parental mAb [panel CTV+ cells] [2]: ~0.6 nM
- EC50 (read off the curve), % pSTAT5+ of CTV+ cells; mixed with CFSE+ cells pre-blocked with Pembrolizumab [panel CTV+ cells] [2]: ~0.6 nM

B2: XVT458-z2-m1 (antibody, V domains shown)
VH: QVQLVQSGAEVKKPGASVKVSCKASGYTFTNFYIHWVRQAPGQGLEWMGSIYPNYGFTAYNQKFKDRVTMTVDTSTSTAYMELRSLRSDDTAVYYCARGYSYAMDYWGQGTTVTVSS
VL: DIQMTQSPSSVSASVGDRVTITCSASQGIWGDLNWYQQKPGKAPKLLIYHTSQLHSDVPSRFSGSGSGTDFTLTISSLQPEDFATYYCQGYSKDLLTFGGGTKLEIK
notes: IgG format; also called z2-XVT458-m1; z2_XVT458m1
- EC50 [3]: 1.5 nM
- Max MFI [3]: 41000 MFI
- kon [4]: 185000 M⁻¹ s⁻¹
- Max MFI [5]: 70 MFI
- EC50 [6]: 0.083 nM
- Max OD [6]: 3.39 OD
- EC50 [7]: 0.087 nM
- Max OD [7]: 3.58 OD
- Kd [8]: 0.148 nM
- koff [8]: 3.28e-05 s⁻¹
- kon [8]: 222000 M⁻¹ s⁻¹

B3: XVT458-z2-m2 (antibody, V domains shown)
VH: B2 VH with S50R
VL: B2 VL with W30Y, Q53S, D57G, G90A
notes: IgG format; also called z2_XVT458m2
- EC50 [3]: 1.15 nM
- Max MFI [3]: 42800 MFI
- kon [4]: 127000 M⁻¹ s⁻¹
- Max MFI [5]: 367 MFI
- EC50 [6]: 0.076 nM
- Max OD [6]: 3.34 OD
- EC50 [7]: 0.086 nM
- Max OD [7]: 3.56 OD
- Kd [8]: 1.24 nM
- koff [8]: 0.00019 s⁻¹
- kon [8]: 153000 M⁻¹ s⁻¹

B4: XVT458-z2-m3 (antibody, V domains shown)
VH: B2 VH with S50R, F57I
VL: B2 VL with W30S, L54R
notes: IgG format; also called z2_XVT458m3
- EC50 [3]: 1.34 nM
- Max MFI [3]: 41100 MFI
- kon [4]: 138000 M⁻¹ s⁻¹
- Max MFI [5]: 124 MFI
- EC50 [6]: 0.089 nM
- Max OD [6]: 3.37 OD
- EC50 [7]: 0.094 nM
- Max OD [7]: 3.54 OD
- Kd [8]: 0.417 nM
- koff [8]: 6.57e-05 s⁻¹
- kon [8]: 158000 M⁻¹ s⁻¹

B5: XVT458-z2-m4 (antibody, V domains shown)
VH: B2 VH with S50R, F57I
VL: B2 VL with W30S, Q53S, L54R, D57G
notes: IgG format; also called z2_XVT458m4
- EC50 [3]: 0.96 nM
- Max MFI [3]: 43400 MFI
- kon [4]: 134000 M⁻¹ s⁻¹
- Max MFI [5]: 258 MFI
- EC50 [6]: 0.079 nM
- Max OD [6]: 3.3 OD
- EC50 [7]: 0.098 nM
- Max OD [7]: 3.54 OD
- Kd [8]: 1.22 nM
- koff [8]: 0.000173 s⁻¹
- kon [8]: 142000 M⁻¹ s⁻¹

B6: XVT458-z2-m5 (antibody, V domains shown)
VH: B2 VH with S50R, F57I
VL: B2 VL with W30Y, Q53S, L54R, D57G, G90A
notes: IgG format; also called z2_XVT458m5
- EC50 [3]: 0.84 nM
- Max MFI [3]: 42400 MFI
- kon [4]: 111000 M⁻¹ s⁻¹
- Max MFI [5]: 335 MFI
- EC50 [6]: 0.051 nM
- Max OD [6]: 3.42 OD
- EC50 [7]: 0.056 nM
- Max OD [7]: 3.58 OD
- Kd [8]: 0.787 nM
- koff [8]: 9.77e-05 s⁻¹
- kon [8]: 124000 M⁻¹ s⁻¹

B7: XVT458-z2-m6 (antibody, V domains shown)
VH: B2 VH with F57I
VL: B2 VL with W30S
notes: IgG format; also called z2_XVT458m6
- EC50 [3]: 1.56 nM
- Max MFI [3]: 39500 MFI
- kon [4]: 213000 M⁻¹ s⁻¹
- Max MFI [5]: 59 MFI
- EC50 [6]: 0.064 nM
- Max OD [6]: 3.49 OD
- EC50 [7]: 0.071 nM
- Max OD [7]: 3.69 OD
- Kd [8]: 0.439 nM
- koff [8]: 0.000101 s⁻¹
- kon [8]: 231000 M⁻¹ s⁻¹
